Legend:
[1] = biological target: T1, UPF2L (120–1227) (UniProt Q9HAU5 120-1227); experiment: native gel or EMSA; 250 nM HEX-labelled ssRNA with 2 μM UPF3B-WT or UPF2L and increasing ratios of the other; on ice 1 h; 25 mM HEPES pH 7.45, 2 mM MgCl2, 150 mM NaCl, 0.5 mM TCEP; 4–20% Tris-Glycine native gel, Coomassie; conditions: both partners purified
T1 construct: UPF2, larger construct with wildtype activity, amino acids 120-1227; source: E. coli BL21 Rosetta2(DE3), purified (Ni-NTA, TEV, reverse IMAC, ion exchange)
T1 sequence (looked up): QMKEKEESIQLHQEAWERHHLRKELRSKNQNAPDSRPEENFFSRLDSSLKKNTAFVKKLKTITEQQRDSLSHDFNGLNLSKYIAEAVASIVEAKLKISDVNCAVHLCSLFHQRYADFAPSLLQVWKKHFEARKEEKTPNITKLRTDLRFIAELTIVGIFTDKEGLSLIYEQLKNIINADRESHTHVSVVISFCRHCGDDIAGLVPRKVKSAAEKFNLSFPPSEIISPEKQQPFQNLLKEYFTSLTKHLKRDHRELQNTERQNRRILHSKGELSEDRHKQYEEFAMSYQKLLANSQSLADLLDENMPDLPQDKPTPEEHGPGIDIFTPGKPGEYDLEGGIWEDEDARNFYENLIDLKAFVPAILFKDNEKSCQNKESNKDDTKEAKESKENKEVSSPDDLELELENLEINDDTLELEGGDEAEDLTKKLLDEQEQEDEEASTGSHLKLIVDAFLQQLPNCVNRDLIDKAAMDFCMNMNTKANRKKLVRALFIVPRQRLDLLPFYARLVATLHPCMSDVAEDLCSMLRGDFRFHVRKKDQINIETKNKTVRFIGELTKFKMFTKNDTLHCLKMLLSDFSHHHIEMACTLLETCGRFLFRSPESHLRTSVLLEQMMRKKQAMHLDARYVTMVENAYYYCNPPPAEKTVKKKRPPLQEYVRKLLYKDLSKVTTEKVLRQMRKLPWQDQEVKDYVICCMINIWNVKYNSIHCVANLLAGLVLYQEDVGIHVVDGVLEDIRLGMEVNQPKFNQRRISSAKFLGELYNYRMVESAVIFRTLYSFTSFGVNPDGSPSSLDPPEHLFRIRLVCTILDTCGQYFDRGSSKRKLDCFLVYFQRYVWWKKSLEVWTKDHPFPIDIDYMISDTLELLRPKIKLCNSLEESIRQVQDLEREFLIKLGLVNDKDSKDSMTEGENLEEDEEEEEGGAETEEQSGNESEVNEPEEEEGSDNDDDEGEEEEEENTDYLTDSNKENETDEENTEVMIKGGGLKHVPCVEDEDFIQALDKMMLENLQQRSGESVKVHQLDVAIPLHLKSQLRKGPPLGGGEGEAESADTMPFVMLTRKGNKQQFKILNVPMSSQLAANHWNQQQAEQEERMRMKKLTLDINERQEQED

[2] = biological target: UPF3B-41-143 (RRM-L);UPF2-MIF4GIII (human;human?, UniProt Q9BZI7;Q9HAU5 41-143;761-1054, |); experiment: fluorescence anisotropy; FA: 5 nM probe, 150 mM NaCl, 25 mM HEPES pH 7.45, 1 mM TCEP, 20 C; EMSA: 250 nM probe, 25 mM HEPES pH 7.45, 2 mM MgCl2, 150 mM NaCl, 0.5 mM TCEP, on ice; conditions: protein: recombinant;recombinant; tags: 6xHis removed by TEV;6xHis removed by TEV; copies: 1;1; label: 5' HEX; single strand; 24-mer hairpin RNA
[3] = biological target: T2, UPF3B-WT (human, UniProt Q9BZI7-2 1-470); experiment: as above; conditions: protein: recombinant, tags: 6xHis removed by TEV
T2 sequence: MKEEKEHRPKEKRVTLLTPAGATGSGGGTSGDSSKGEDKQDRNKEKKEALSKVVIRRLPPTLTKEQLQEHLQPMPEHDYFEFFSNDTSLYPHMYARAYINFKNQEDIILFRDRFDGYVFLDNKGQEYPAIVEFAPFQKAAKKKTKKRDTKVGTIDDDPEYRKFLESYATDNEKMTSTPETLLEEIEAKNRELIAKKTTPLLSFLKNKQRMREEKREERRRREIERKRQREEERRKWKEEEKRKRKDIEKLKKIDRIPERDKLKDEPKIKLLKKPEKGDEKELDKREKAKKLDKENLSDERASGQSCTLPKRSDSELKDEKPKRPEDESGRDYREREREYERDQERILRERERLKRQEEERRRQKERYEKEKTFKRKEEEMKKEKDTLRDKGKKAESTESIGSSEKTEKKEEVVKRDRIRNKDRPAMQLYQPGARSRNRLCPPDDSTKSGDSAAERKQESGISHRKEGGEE

[4] = biological target: UPF2-MIF4GIII (UniProt Q9HAU5 761-1054); experiment: as above; conditions: protein: recombinant; tags: 6xHis removed by TEV; label: 5' HEX; single strand; 24-mer hairpin RNA
[5] = biological target: T3, UPF3B-146-256 (human, UniProt Q9BZI7 146-256); experiment: as above; conditions: protein: recombinant; tags: 6xHis removed by TEV; label: 5' HEX on strand 1; blunt
T3 sequence: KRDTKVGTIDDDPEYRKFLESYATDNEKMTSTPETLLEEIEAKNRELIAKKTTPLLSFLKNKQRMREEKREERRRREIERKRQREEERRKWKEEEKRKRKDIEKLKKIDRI

[6] = biological target: T4, UPF3B-41-262 (human, UniProt Q9BZI7 41-262); experiment: as above; conditions: protein: recombinant; tags: 6xHis removed by TEV; label: 5' HEX on strand 1; blunt
T4 sequence: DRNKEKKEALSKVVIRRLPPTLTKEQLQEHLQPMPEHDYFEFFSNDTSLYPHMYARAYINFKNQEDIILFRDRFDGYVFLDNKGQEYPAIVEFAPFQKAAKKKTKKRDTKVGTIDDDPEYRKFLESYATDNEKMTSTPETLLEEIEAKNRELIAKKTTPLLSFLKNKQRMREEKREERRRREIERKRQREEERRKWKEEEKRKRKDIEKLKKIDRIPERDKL

[7] = biological target: T5, UPF3B-41-214 (human, UniProt Q9BZI7 41-214); experiment: as above; conditions: protein: recombinant; tags: 6xHis removed by TEV; label: 5' HEX on strand 1; blunt
T5 sequence: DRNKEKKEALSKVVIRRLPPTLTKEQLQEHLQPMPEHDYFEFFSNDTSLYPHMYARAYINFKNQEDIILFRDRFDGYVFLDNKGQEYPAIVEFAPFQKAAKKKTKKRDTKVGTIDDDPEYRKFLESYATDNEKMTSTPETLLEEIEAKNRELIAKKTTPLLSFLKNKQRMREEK

[8] = biological target: T6, UPF3B-41-143 (RRM-L) (human, UniProt Q9BZI7 41-143); experiment: as above; conditions: protein: recombinant; tags: 6xHis removed by TEV; label: 5' HEX on strand 1; blunt
T6 sequence: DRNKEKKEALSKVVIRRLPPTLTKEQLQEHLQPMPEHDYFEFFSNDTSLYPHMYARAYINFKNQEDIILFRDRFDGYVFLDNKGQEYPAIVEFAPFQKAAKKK

[9] = biological target: T7, UPF3B-146-417 (human, UniProt Q9BZI7-2 146-417); experiment: as above; conditions: protein: recombinant; tags: 6xHis removed by TEV; label: 5' HEX on strand 1; blunt
T7 sequence: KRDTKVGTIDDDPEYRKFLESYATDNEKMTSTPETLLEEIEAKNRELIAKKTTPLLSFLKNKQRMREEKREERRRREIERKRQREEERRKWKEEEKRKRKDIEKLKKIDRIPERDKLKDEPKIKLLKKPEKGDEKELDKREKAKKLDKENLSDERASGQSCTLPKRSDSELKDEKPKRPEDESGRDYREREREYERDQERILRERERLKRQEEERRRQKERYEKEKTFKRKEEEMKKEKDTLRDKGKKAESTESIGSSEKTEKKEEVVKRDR

B1: UPF3B-WT (residues 1–470) (natural protein, human, UniProt Q9BZI7-2 1-470, looked up)
chain: MKEEKEHRPKEKRVTLLTPAGATGSGGGTSGDSSKGEDKQDRNKEKKEALSKVVIRRLPPTLTKEQLQEHLQPMPEHDYFEFFSNDTSLYPHMYARAYINFKNQEDIILFRDRFDGYVFLDNKGQEYPAIVEFAPFQKAAKKKTKKRDTKVGTIDDDPEYRKFLESYATDNEKMTSTPETLLEEIEAKNRELIAKKTTPLLSFLKNKQRMREEKREERRRREIERKRQREEERRKWKEEEKRKRKDIEKLKKIDRIPERDKLKDEPKIKLLKKPEKGDEKELDKREKAKKLDKENLSDERASGQSCTLPKRSDSELKDEKPKRPEDESGRDYREREREYERDQERILRERERLKRQEEERRRQKERYEKEKTFKRKEEEMKKEKDTLRDKGKKAESTESIGSSEKTEKKEEVVKRDRIRNKDRPAMQLYQPGARSRNRLCPPDDSTKSGDSAAERKQESGISHRKEGGEE
notes: UPF3B, human, isoform 2 (the predominant form found in cells), residues 1-470, printed length 470; also called full-length UPF3B; source: insect cells (MultiBac), purified (Ni-NTA, TEV, reverse IMAC, ion exchange)
B1: binds [1].

CACUGAUCUGACGCUGCACCUGGG (ssRNA) [24mer ssRNA] was tested, and the Kd [2] was 620 nM, the Kd ([3]; label: 5' HEX, single strand, 24-mer hairpin RNA) was 30 nM and the Kd [4] was about 700 nM.

B2: 24mer dsRNA (dsRNA)
RNA 1: CCCUGAGCUGACGCAGCACCUGGG
RNA 2: CCCAGGUGCUGCGUCAGCUCAGGG
In the case of B2, the Kd [5] is reported as 1800 nM, the Kd [6] is reported as 37 nM and the Kd ([3]; label: 5' HEX on strand 1, blunt) is reported as 15 nM. The Kd [7] was 1200 nM, the Kd [8] was 9200 nM and the Kd [9] was 280 nM.

Reference: publication PMC9177958, “Structures of nonsense-mediated mRNA decay factors UPF3B and UPF3A in complex with UPF2 reveal molecular basis for competitive binding and for neurodevelopmental disorder-causing mutation” (Nucleic Acids Research, 2022)
